In article PMC12775002, “Human O-GlcNAcase catalytic-stalk dimer anchors flexible histone binding domains” (Communications Chemistry, 2025):

B1: human O-GlcNAcase, long isoform (OGA-L), full length (enzyme, UniProt O60502 1-916, looked up)
chain: MVQKESQATLEERESELSSNPAASAGASLEPPAAPAPGEDNPAGAGGAAVAGAAGGARRFLCGVVEGFYGRPWVMEQRKELFRRLQKWELNTYLYAPKDDYKHRMFWREMYSVEEAEQLMTLISAAREYEIEFIYAISPGLDITFSNPKEVSTLKRKLDQVSQFGCRSFALLFDDIDHNMCAADKEVFSSFAHAQVSITNEIYQYLGEPETFLFCPTEYCGTFCYPNVSQSPYLRTVGEKLLPGIEVLWTGPKVVSKEIPVESIEEVSKIIKRAPVIWDNIHANDYDQKRLFLGPYKGRSTELIPRLKGVLTNPNCEFEANYVAIHTLATWYKSNMNGVRKDVVMTDSEDSTVSIQIKLENEGSDEDIETDVLYSPQMALKLALTEWLQEFGVPHQYSSRQVAHSGAKASVVDGTPLVAAPSLNATTVVTTVYQEPIMSQGAALSGEPTTLTKEEEKKQPDEEPMDMVVEKQEETDHKNDNQILSEIVEAKMAEELKPMDTDKESIAESKSPEMSMQEDCISDIAPMQTDEQTNKEQFVPGPNEKPLYTAEPVTLEDLQLLADLFYLPYEHGPKGAQMLREFQWLRANSSVVSVNCKGKDSEKIEEWRSRAAKFEEMCGLVMGMFTRLSNCANRTILYDMYSYVWDIKSIMSMVKSFVQWLGCRSHSSAQFLIGDQEPWAFRGGLAGEFQRLLPIDGANDLFFQPPPLTPTSKVYTIRPYFPKDEASVYKICREMYDDGVGLPFQSQPDLIGDKLVGGLLSLSLDYCFVLEDEDGICGYALGTVDVTPFIKKCKISWIPFMQEKYTKPNGDKELSEAEKIMLSFHEEQEVLPETFLANFPSLIKMDIHKKVTDPSVAKSMMACLLSSLKANGSRGAFCEVRPDDKRILEFYSKLGCFEIAKMEGFPKDVVILGRSL
notes: human O-GlcNAcase (OGA), long isoform OGA-L, 103 kDa, full length, codon optimized; also called hOGA; full-length recombinant OGA; source: E. coli TOP10 (pBAD), purified (Talon resin for the arrays; HisTrap and size-exclusion chromatography for cryo-EM); not shown: His6, N-terminal, kept

Assays:
[1] = target: B1; assay: peptide or protein array; Active Motif MODified histone peptide array (384 modified histone peptides in duplicate, immobilised); 100 nM protein in 20 mM Tris pH 7.5, 1 mM DTT, 0.5 mg/mL BSA, RT 1 h; detected with anti-His6 antibody; 3 or more arrays; details: both partners purified
[2] = target: recombinant mononucleosome with the H4K5,8,12,16Ac modification (UniProt P62805); assay: pull-down; 500 nM biotinylated mononucleosomes with 0, 25, 50, 100, 250 and 500 nM full-length OGA in OGA assay buffer, overnight 4 °C; captured on streptavidin magnetic beads; bound OGA-L quantified by immunoblot (anti-MGEA5); saturation plot and Scatchard analysis
[3] = target: recombinant mononucleosome with the H3K36Me3 modification; assay: as above
[4] = target: the molecule itself; assay: cryo-EM structure; apo full-length OGA-L, about 0.5 ug/ul in 20 mM Tris, 150 mM NaCl; Titan Krios 300 kV

Binder	binding result [1]	Kd [2] [nM]	Kd [3] [nM]	binding result [4]
SGRGKGGKGLGKGGAKRHR (peptide, UniProt P62805 2-20, looked up, acetyl-lysine at K5, K8, K12 and K16, histone H4 tail peptide, residues 1-19, on the array; also called H4 1-19 K^5,8,12,16Ac; H4K^5,8,12,16Ac; source: bought: Active Motif MODified Histone Peptide Array (peptide on the array)) [histone H4 1-19 peptide, K5,8,12,16Ac]	binds			
SGRGKGGKGLGKGGAKRHR (peptide, UniProt P62805 2-20, looked up, acetyl-lysine at K8, K12 and K16, histone H4 tail peptide, residues 1-19, on the array; also called H4 1-19 K^8,12,16Ac; H4K^8,12,16Ac; source: bought: Active Motif MODified Histone Peptide Array (peptide on the array)) [histone H4 1-19 peptide, K8,12,16Ac]	binds			
B1		220	290	binds
